Columns and labels:
[1] = target: T1, human P Glycoprotein (Pgp) / Multidrug resistance protein 1 (MDR1), gene ABCB1, on cells (human, UniProt P08183 1-1280); experiment: flow cytometry on 293T cells stably expressing human ABCB1 (293T_ABCB1_OX; the cells also carry CD47); 293T_ABCB1_OX cells: Pgp overexpressed, CD47 also present
T1 construct: also called KPB1; KBP1

[2] = target: T1, human P Glycoprotein (Pgp) / Multidrug …; experiment: cell-based or functional assay
[3] = target: T2, human CD47-Fc fusion protein (R&D systems) (human, UniProt Q08722 19-141); experiment: ELISA, binding to CD47; design: Bmax: unit not given here
T2 construct: Bought (R&D systems); also called Fc-tagged CD47; not shown: Fc part of the bought fusion protein

[4] = target: T3, EGFR on 293T cells overexpressing EGFR (UniProt P00533 25-1210, limits assumed); experiment: FACS on 293T-EGFR OX cells
T3 construct: whole, on cells

[5] = target: T1, human P Glycoprotein (Pgp) / Multidrug …; experiment: FACS on 293T-B1OX cells (overexpressing MDR1)
[6] = target: T1, human P Glycoprotein (Pgp) / Multidrug …; experiment: flow cytometry on 293T cells stably expressing human ABCB1 (293T_ABCB1_OX; the cells also carry CD47)
[7] = target: T2, human CD47-Fc fusion protein (R&D …); experiment: ELISA, plate coated with human CD47-Fc; design: Bmax: unit not given here
[8] = target: T2, human CD47-Fc fusion protein (R&D …); experiment: ELISA, Fc-tagged CD47 coated on the plate
human CD47 on cells = target: T4, human CD47 on cells (human, UniProt Q08722 19-323); experiment: flow cytometry on human red blood cells (h408 RBC), Alexa Fluor 647 channel
T4 construct: also called KT14 (target name); leukocyte surface antigen CD47

[9] = target: T5, cynomolgus CD47 on erythrocytes (cynomolgus, UniProt A0A5F8AK49 19-323 (rhesus entry)); experiment: flow cytometry on cynomolgus red blood cells (cy807 RBC), Alexa Fluor 647 channel
T5 construct: whole, on cells; also called cynomolgus RBCs

[10] = target: T2, human CD47-Fc fusion protein (R&D …); experiment: ELISA, plate coated with human CD47-Fc
[11] = target: T2, human CD47-Fc fusion protein (R&D …); experiment: ELISA, binding to CD47
[12] = target: T1, human P Glycoprotein (Pgp) / Multidrug …; experiment: FACS on 293T cells overexpressing MDR1 (column MDR1 FACS)

B1: Ab1 (15D3 IgG1 DD / KT14 IgG1 KK / MRK16 VL-Hz1) (bispecific antibody, V domains shown)
VH 1: EVKVVESGGVLVRPGGSLKLSCAASGFTFSRYTMSWVRQTPEKRLEWVATISSGGGNTYYPDSVKGRFTVSRDNAMSSLYLQMSSLRSEDTALYYCARYGAGDAWFAYWGQGTLVTVSA
VH 2: QVQLVQSGAEVKKPGASVKVSCKASGYTFTNYNMHWVRQAPGQRLEWMGTIYPGNDDTSYNQKFKDRVTITADTSASTAYMELSSLRSEDTAVYYCARGGYRAMDYWGQGTLVTVSS
VL: DIVMTQTPLSSPVTLGQPASISCRSSQSIVHSTGQTYLEWYQQRPGQPPRLLIYKISNRFSGVPDRFSGSGAGTDFTLKISRVEAEDVGVYYCFQASHFPRTFGQGTKLEIK
notes: Human IgG1 heavy chains with DD (K392D, K409D) on the 15D3 arm and KK (E356K, D399K) on the KT14 (5F9) arm; kappa light chain
EC50 [1]: 75.5 nM | Vincristine IC50 (nM) on N6/ADR cells with antibody at 50 ug/mL [2]: 0.002 nM

B2: 15D3/UIC2 (15D3 heavy chain with UIC2 light chain) (antibody, human IgG1, V domains shown)
VH: EVKVVESGGVLVRPGGSLKLSCAASGFTFSRYTMSWVRQTPEKRLEWVATISSGGGNTYYPDSVKGRFTVSRDNAMSSLYLQMSSLRSEDTALYYCARYGAGDAWFAYWGQGTLVTVSA
VL: DVVMTQTPRSLPVSLGDQASISCRSSQSLLHSNGNTYLHWYLQKPGQSPKLLIYKVSNRFSGVPDRFSGSGSGTDFTLKISRVEAEDLGVYFCSQSTHIPPWTFGGGTKLDIK
notes: Light chain shuffle construct; human IgG1 / kappa constant regions
Bmax [3]: 3.45 | Kd [3]: 169 nM

B3: 15D3 DD HC::necitumumab KK HC::MRK16 LC (bispecific antibody, IgG1, V domains shown)
VH 1: EVKVVESGGVLVRPGGSLKLSCAASGFTFSRYTMSWVRQTPEKRLEWVATISSGGGNTYYPDSVKGRFTVSRDNAMSSLYLQMSSLRSEDTALYYCARYGAGDAWFAYWGQGTLVTVSA
VH 2: QVQLQESGPGLVKPSQTLSLICTVSGGSISSGDYYWSWIRQPPGKGLEWIGYIYYSGSTDYNPSLKSRVTMSVDTSKNQFSLKVNSVTAADTAVYYCARVSIFGVGTFDYWGQGTLVTVSS
VL: DVLMTQTPVSLSVSLGDQASISCRSSQSIVHSTGNTYLEWYLQKPGQSPKLLIYKISNRFSGVPDRFSGSGSGTDFTLKISRVEAEDLGVYYCFQASHFPRTFGGGTKLEIK
notes: DD = K392D and K409D, KK = E356K and D399K (EU) in the IgG1 heavy chains; common light chain; also called 15D3DD: necitumumab KK:MRK16; KT3-2KK 15D3DD 1MRK16
EC50 [4]: 110 nM | EC50 [5]: 33.1 nM

B4: Ab5 (15D3 HC-Hz1 DD hIgG1 / KT14 IgG1 KK / MRK16 VL-Hz1) (bispecific antibody, V domains shown)
VH 1: EVQLVESGGVVVQPGGSLRLSCAASGFTFSRYTMSWVRQAPGKGLEWVATISSGGGQTYYPDSVKGRFTVSRDNSKNSLYLQMNSLRTEDTALYYCARYGAGDAWFAYWGQGTLVTVSS
VH 2: QVQLVQSGAEVKKPGASVKVSCKASGYTFTNYNMHWVRQAPGQRLEWMGTIYPGNDDTSYNQKFKDRVTITADTSASTAYMELSSLRSEDTAVYYCARGGYRAMDYWGQGTLVTVSS
VL: DIVMTQTPLSSPVTLGQPASISCRSSQSIVHSTGQTYLEWYQQRPGQPPRLLIYKISNRFSGVPDRFSGSGAGTDFTLKISRVEAEDVGVYYCFQASHFPRTFGQGTKLEIK
notes: Human IgG1 heavy chains with DD on the 15D3 arm and KK on the KT14 (5F9) arm; kappa light chain
Vincristine IC50 (nM) on N6/ADR cells with antibody at 50 ug/mL [2]: 0.0589 nM | EC50 [6]: 137 nM

B5: 15D3/5F9 (15D3 heavy chain with 5F9 light chain) (antibody, human IgG1, V domains shown)
VH: EVKVVESGGVLVRPGGSLKLSCAASGFTFSRYTMSWVRQTPEKRLEWVATISSGGGNTYYPDSVKGRFTVSRDNAMSSLYLQMSSLRSEDTALYYCARYGAGDAWFAYWGQGTLVTVSA
VL: DIVMTQSPLSLPVTPGEPASISCRSSQSIVYSNGNTYLGWYLQKPGQSPQLLIYKVSNRFSGVPDRFSGSGSGTDFTLKISRVEADVGVYYCFQGSHVPYTFGQGTKLEIK
notes: as for B2
Bmax [3]: 3.1 | Kd [3]: 252 nM

B6: 5F9/UIC2 (5F9 heavy chain with UIC2 light chain) (antibody, human IgG1, V domains shown)
VH: QVQLVQSGAEVKKPGASVKVSCKASGYTFTNYNMHWVRQAPGQRLEWMGTIYPGNDDTSYNQKFKDRVTITADTSASTAYMELSSLRSEDTAVYYCARGGYRAMDYWGQGTLVTVSS
VL: DVVMTQTPRSLPVSLGDQASISCRSSQSLLHSNGNTYLHWYLQKPGQSPKLLIYKVSNRFSGVPDRFSGSGSGTDFTLKISRVEAEDLGVYFCSQSTHIPPWTFGGGTKLDIK
notes: as for B2
Bmax [7]: 3.08 | Kd [7]: 6.3 nM

B7: KBisP1.1 bispecific antibody (15D3 IgG1 DD/5F9 IgG1 KK/MRK16) (bispecific antibody, V domains shown)
VH 1: EVKVVESGGVLVRPGGSLKLSCAASGFTFSRYTMSWVRQTPEKRLEWVATISSGGGNTYYPDSVKGRFTVSRDNAMSSLYLQMSSLRSEDTALYYCARYGAGDAWFAYWGQGTLVTVSA
VH 2: QVQLVQSGAEVKKPGASVKVSCKASGYTFTNYNMHWVRQAPGQRLEWMGTIYPGNDDTSYNQKFKDRVTITADTSASTAYMELSSLRSEDTAVYYCARGGYRAMDYWGQGTLVTVSS
VL: DVLMTQTPVSLSVSLGDQASISCRSSQSIVHSTGNTYLEWYLQKPGQSPKLLIYKISNRFSGVPDRFSGSGSGTDFTLKISRVEAEDLGVYYCFQASHFPRTFGGGTKLEIK
notes: 15D3 VH on human IgG1 with K392D and K409D (DD), 5F9 VH on human IgG1 with E356K and D399K (KK), EU numbering; also called KNJYBisP1.1; KBis1.1
Kd [8]: 145 nM | EC50 [1]: 40.3 nM | Vincristine IC50 (nM) on N6/ADR cells with antibody at 50 ug/mL [2]: 0.0461 nM | R4 (percent of red blood cells in the positive gate R4) (human CD47 on cells): 0.609% | R4 (percent of red blood cells in the positive gate R4) [9]: 0.483% | binding result [9]: no binding

B8: 5F9/M89 (5F9 heavy chain with M89 light chain) (antibody, human IgG1, V domains shown)
VH: QVQLVQSGAEVKKPGASVKVSCKASGYTFTNYNMHWVRQAPGQRLEWMGTIYPGNDDTSYNQKFKDRVTITADTSASTAYMELSSLRSEDTAVYYCARGGYRAMDYWGQGTLVTVSS
VL: EIVLTQSPATLSLSPGERATLSCRASQSVGGSYLAWYQQKPGQAPRLLIYGASRRATGIPARFSGSGSGTDFTLTISSLQPEDFASYFCQQTNTFPLTFGGGTKVEIK
notes: as for B2
Bmax [7]: 4.22 | Kd [7]: 1510 nM

B9: 5F9/15D3 (5F9 heavy chain with 15D3 light chain) (antibody, human IgG1, V domains shown)
VH: QVQLVQSGAEVKKPGASVKVSCKASGYTFTNYNMHWVRQAPGQRLEWMGTIYPGNDDTSYNQKFKDRVTITADTSASTAYMELSSLRSEDTAVYYCARGGYRAMDYWGQGTLVTVSS
VL: DVLMTQTPLSLPVSLGDQASISCRSSQSIVHSTGNTYLEWYLQKPGQSPKLLIYKVSNRFSGVPDRFSGSGSGTDFTLKISRLEAEDLGVYYCFQGSHFPRTFGGGTRLEIK
notes: as for B2
Bmax [7]: 2.96 | Kd [7]: 0.257 nM

B10: 5F9/MRK16 (anti-CD47 antibody with two 5F9 heavy chains and two MRK16 light chains) (antibody, human IgG1, V domains shown)
VH: QVQLVQSGAEVKKPGASVKVSCKASGYTFTNYNMHWVRQAPGQRLEWMGTIYPGNDDTSYNQKFKDRVTITADTSASTAYMELSSLRSEDTAVYYCARGGYRAMDYWGQGTLVTVSS
VL: DVLMTQTPVSLSVSLGDQASISCRSSQSIVHSTGNTYLEWYLQKPGQSPKLLIYKISNRFSGVPDRFSGSGSGTDFTLKISRVEAEDLGVYYCFQASHFPRTFGGGTKLEIK
notes: Human IgG1 / kappa constant regions; also called KT14/MRK16 monoclonal; KT14_MRK16
fold decrease in affinity against the un-swapped 5F9 control [10]: 100 fold | Bmax [7]: 2.94 | Kd [7]: 0.17 nM | R4 (percent of red blood cells in the positive gate R4) (human CD47 on cells): 0.708% | R4 (percent of red blood cells in the positive gate R4) [9]: 0.717% | binding result [9]: no binding

B11: 15D3/MRK16 (anti-MDR1 antibody with two 15D3 heavy chains and two MRK16 light chains) (antibody, human IgG1, V domains shown)
VH: EVKVVESGGVLVRPGGSLKLSCAASGFTFSRYTMSWVRQTPEKRLEWVATISSGGGNTYYPDSVKGRFTVSRDNAMSSLYLQMSSLRSEDTALYYCARYGAGDAWFAYWGQGTLVTVSA
VL: DVLMTQTPVSLSVSLGDQASISCRSSQSIVHSTGNTYLEWYLQKPGQSPKLLIYKISNRFSGVPDRFSGSGSGTDFTLKISRVEAEDLGVYYCFQASHFPRTFGGGTKLEIK
notes: Human IgG1 / kappa constant regions; also called 15D3/MRK16 monoclonal; a15D3:MRK16 antibody
fold decrease in affinity against the un-swapped 15D3 control [11]: ~20 fold | Bmax [3]: 3.94 | Kd [3]: 229 nM

B12: anti-MDR1 antibody MRK16 (recombinant, human IgG1/Kappa) (antibody, V domains shown)
VH: EVILVESGGGLVKPGGSLKLSCAASGFTFSSYTMSWVRQTPEKRLEWVATISSGGGNTYYPDSVKGRFTISRDNAKNNLYLQMSSLRSEDTALYYCARYYRYEAWFASWGQGTLVTVSA
VL: DVLMTQTPVSLSVSLGDQASISCRSSQSIVHSTGNTYLEWYLQKPGQSPKLLIYKISNRFSGVPDRFSGSGSGTDFTLKISRVEAEDLGVYYCFQASHFPRTFGGGTKLEIK
Vincristine IC50 (nM) on N6/ADR cells with antibody at 50 ug/mL [2]: 0.734 nM | R4 (percent of red blood cells in the positive gate R4) (human CD47 on cells): 0.867% | binding result (human CD47 on cells): no binding | EC50 [5]: 58.8 nM | R4 (percent of red blood cells in the positive gate R4) [9]: 0.801% | binding result [9]: no binding

B13: UIC2 DD HC::cetuximab KK HC::MRK16 LC (bispecific antibody, V domains shown)
VH 1: AVQLQQSGPELVKTGASVKISCKASGYSFSNYYIHWVKQSHGKSLEWIGFISCYNGATFYNQKFKGKATFTVDTSSSTAYMKFNSLTFEDSAVYYCARLPIQFGNFYPMDYWGQGTSVTVSS
VH 2: not shown
VL: DVLMTQTPVSLSVSLGDQASISCRSSQSIVHSTGNTYLEWYLQKPGQSPKLLIYKISNRFSGVPDRFSGSGSGTDFTLKISRVEAEDLGVYYCFQASHFPRTFGGGTKLEIK
notes: DD / KK charge pair substitutions in the IgG1 heavy chains; common light chain
binding result [12]: no binding

B14: 15D3 IgG1 KK/5F9 IgG1 DD/UIC2 (bispecific antibody)
chain 1: not shown
chain 2: not shown
chain 3: DVVMTQTPRSLPVSLGDQASISCRSSQSLLHSNGNTYLHWYLQKPGQSPKLLIYKVSNRFSGVPDRFSGSGSGTDFTLKISRVEAEDLGVYFCSQSTHIPPWTFGGGTKLDIKRTVAAPSVFIFPPSDEQLKSGTASVVCLLNNFYPREAKVQWKVDNALQSGNSQESVTEQDSKDSTYSLSSTLTLSKADYEKHKVYACEVTHQGLSSPVTKSFNRGEC
Kd [8]: 1620 nM

— patent US20220204627A1 (WILLIAM ROBERT ARATHOON LIVING TRUST DATED AUGUST 29 2016, published 2022)
